Assay [1] deals with T1, MICA008.His (human MICA*008 alpha 3 domain, His tagged) (human).
T1 construct: Also used for FPOP (expressed in CHO); also called huMICA*008 alpha 3-his; MICA*008 a3
T1 chain: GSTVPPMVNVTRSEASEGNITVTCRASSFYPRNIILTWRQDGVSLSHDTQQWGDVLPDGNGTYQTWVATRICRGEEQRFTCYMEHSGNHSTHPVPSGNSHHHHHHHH
Briefly: SPR, antibody captured.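 Further: SPR with antibody held by surface-bound anti-Fc while His-tagged alpha three domains flow over, Kd derived by fitting a one-to-one binding model to sensograms.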

The target of assay [2] is T2, MICA004.His (human MICA*004 alpha 3 domain, His tagged) (human).
T2 construct: also called huMICA*004 alpha 3-his
T2 chain: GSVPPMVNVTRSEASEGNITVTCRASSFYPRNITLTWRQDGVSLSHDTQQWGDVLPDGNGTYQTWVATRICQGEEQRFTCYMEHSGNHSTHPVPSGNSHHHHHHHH
Briefly: SPR, antibody captured.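 Further: SPR with antibody held by surface-bound anti-Fc while His-tagged alpha three domains flow over, Kd derived by fitting a one-to-one binding model to sensograms.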

Assay [3] addresses T3, MICB005.His (human MICB*005 alpha 3 domain, His tagged) (human).
T3 construct: also called huMICB*005 alpha 3-his
T3 chain: T1 chain with R12C, A15V, I35T, D48N, C72R, R73Q, S90G
Briefly: SPR, antibody captured.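 Further: SPR with antibody held by surface-bound anti-Fc while His-tagged alpha three domains flow over, Kd derived by fitting a one-to-one binding model to sensograms.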

In assay [4] the target is T4, MICA002.His (human MICA*002 alpha 3 domain, His tagged) (human).
T4 construct: also called huMICA*002 alpha 3-his
T4 chain: T1 chain with S28G, R32W, I35T, T37S, R73Q
Briefly: SPR, antibody captured.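 Further: SPR with antibody held by surface-bound anti-Fc while His-tagged alpha three domains flow over, Kd derived by fitting a one-to-one binding model to sensograms.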

Assay [5] addresses T5, MICA*004 on HCC1534 cells (human, UniProt Q29983 24-383). Briefly: cell-based or functional assay.
Assay [6] has as its target T6, MICA*008 on MEL-JUSO cells (human, UniProt Q29983 24-317).
T6 chain: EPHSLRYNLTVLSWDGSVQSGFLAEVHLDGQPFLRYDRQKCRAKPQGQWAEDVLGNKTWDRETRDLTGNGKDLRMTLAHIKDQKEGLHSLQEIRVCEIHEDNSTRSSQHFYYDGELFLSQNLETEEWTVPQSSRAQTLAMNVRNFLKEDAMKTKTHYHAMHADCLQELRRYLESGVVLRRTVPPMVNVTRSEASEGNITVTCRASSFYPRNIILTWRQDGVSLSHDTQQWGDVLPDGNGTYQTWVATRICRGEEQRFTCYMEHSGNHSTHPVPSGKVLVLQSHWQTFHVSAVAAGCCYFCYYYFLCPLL
Briefly: cell-based or functional assay.

Assay [7] has as its target T7, MICB*005 on HCC1534 cells (human, UniProt Q29980 23-383).
T7 sequence (looked up): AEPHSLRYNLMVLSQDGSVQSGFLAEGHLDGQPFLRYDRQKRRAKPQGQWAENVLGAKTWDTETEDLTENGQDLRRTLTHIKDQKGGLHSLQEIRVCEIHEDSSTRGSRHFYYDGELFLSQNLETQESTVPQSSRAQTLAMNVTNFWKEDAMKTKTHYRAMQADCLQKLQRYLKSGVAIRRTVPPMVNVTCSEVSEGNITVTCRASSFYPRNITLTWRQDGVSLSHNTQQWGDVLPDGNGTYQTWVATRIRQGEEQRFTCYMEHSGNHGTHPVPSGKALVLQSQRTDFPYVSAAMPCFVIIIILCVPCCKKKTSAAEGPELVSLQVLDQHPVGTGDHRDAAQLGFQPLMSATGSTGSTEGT
Kind of assay: cell-based or functional assay.

Assay [8] has as its target T5, MICA*004 on HCC1534 cells. Briefly: cell-based or functional assay. This is another data set of the same source.
Assay [9] deals with MICA*002 on cells (PANC-1; B16-MICA002) (human, UniProt Q29983 24-383). Briefly: cell-based or functional assay.
For assay [10], the target named is T6, MICA*008 on MEL-JUSO cells. Briefly: cell-based or functional assay.
Assay [11] addresses T7, MICB*005 on HCC1534 cells. Briefly: cell-based or functional assay. This is another data set of the same source.
Assay [12] addresses T8, MICA.008.a3.R202-S297.R202N mIgG2a.Glyco11 (human; mouse, UniProt Q29983 203-297, engineered N-linked glycosylation site R202N).
T8 construct: not shown: murine IgG2a Fc
T8 chain: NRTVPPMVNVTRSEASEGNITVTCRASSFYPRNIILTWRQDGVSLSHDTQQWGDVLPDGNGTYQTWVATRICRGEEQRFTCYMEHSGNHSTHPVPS
Briefly: ELISA, coated variant.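 Further: ELISA with plates coated at 2 ug/ml with MICA*008 alpha 3 glycosylation variants as murine IgG2a Fc fusions, antibody binding detected by HRP anti-human IgG Fc and TMB absorbance.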

Assay [13] deals with T9, MICA.008.a3.T204-S297.C-terminal insert of N298.G299.S300.mIgG2a.Glyco17 (human; mouse, UniProt Q29983 204-297, engineered N-linked glycosylation site at inserted N298).
T9 construct: not shown: murine IgG2a Fc
T9 chain: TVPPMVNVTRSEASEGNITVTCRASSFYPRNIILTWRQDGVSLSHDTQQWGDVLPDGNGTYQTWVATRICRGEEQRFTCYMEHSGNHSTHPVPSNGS
Kind of assay: ELISA, coated variant.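 Further: ELISA with plates coated at 2 ug/ml with MICA*008 alpha 3 glycosylation variants as murine IgG2a Fc fusions, antibody binding detected by HRP anti-human IgG Fc and TMB absorbance.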

In assay [14] the target is T10, MICA.008.a3.T204-S297.E215N.mIgG2a.Glyco12 (human; mouse, UniProt Q29983 204-297, engineered N-linked glycosylation site E215N).
T10 construct: not shown: murine IgG2a Fc
T10 chain: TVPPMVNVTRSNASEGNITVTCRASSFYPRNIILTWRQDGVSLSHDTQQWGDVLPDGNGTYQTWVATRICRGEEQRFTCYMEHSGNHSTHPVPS
Kind of assay: ELISA, coated variant.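 Further: ELISA with plates coated at 2 ug/ml with MICA*008 alpha 3 glycosylation variants as murine IgG2a Fc fusions, antibody binding detected by HRP anti-human IgG Fc and TMB absorbance.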

Assay [15] has as its target T11, MICA.008.a3.T204-S297.I236T.mIgG2a.Glyco13 (human; mouse, UniProt Q29983 204-297, engineered N-linked glycosylation site created by I236T).
T11 construct: not shown: murine IgG2a Fc
T11 chain: T10 chain with N12E, I33T
Kind of assay: ELISA, coated variant.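 Further: ELISA with plates coated at 2 ug/ml with MICA*008 alpha 3 glycosylation variants as murine IgG2a Fc fusions, antibody binding detected by HRP anti-human IgG Fc and TMB absorbance.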

For assay [16], the target named is T12, MICA.008.a3.T204-S297.H248N.mIgG2a.Glyco15 (human; mouse, UniProt Q29983 204-297, engineered N-linked glycosylation site H248N).
T12 construct: not shown: murine IgG2a Fc
T12 chain: T10 chain with N12E, H45N
Briefly: ELISA, coated variant.

For assay [17], the target named is T1, MICA008.His (human MICA*008 alpha 3 …). Kind of assay: SPR (Biacore), MICA*008 alpha-3 domain.
Assay [18] concerns the target T13, MICA.008.a3.T204-S297.R279N.mIgG2a.Glyco16 (human; mouse, UniProt Q29983 204-297, engineered N-linked glycosylation site R279N).
T13 construct: not shown: murine IgG2a Fc
T13 chain: T10 chain with N12E, R76N
Briefly: ELISA, coated variant.

The target of assay [19] is T14, MICA.008.a3.T204-S297.G243N.mIgG2a.Glyco14 (human; mouse, UniProt Q29983 204-297, engineered N-linked glycosylation site G243N).
T14 construct: not shown: murine IgG2a Fc
T14 chain: T10 chain with N12E, G40N
Briefly: ELISA, coated variant.

The record followed here is patent US20200055939A1 (Genentech, published 2020).

Residue numbers refer to the chain shown, from its start. Where two headings read alike, the source gives them in different places.

B1: 15F11 (antibody, V domains shown)
VH: EIQLQQSGPELVKPGASVRVSCKPSGYAFTSNNIYWVKQSRRKSLEWIGYIDPYIGRIIYNQQFKDKATLTVDKSSSTAYMHLNSLTSEDSAVYYCSRSGERSNFDYWGQGTTLTVSS
VL: EIVLTQSPTAMAASPGEKITITCSASSSISSNYLHWYQQKPGFSPKLLIYRTSNLASGVPARFSGSGSGTSYSLTIGPMEAEDVATYYCQQGGSLPLTFGAGTKVEIK
notes: Mouse variable domains; constant regions differ by assay
As to B1, the Kd in assay [1] worked out at 1.02 nM; in [2], 1.22 nM; in assay [3], 3.28 nM; in assay [4], 3.05 nM. Moreover, the “% max inhibition of shedding” value in [5] was determined as 86%; in assay [6] it was 74%; in [7], 59%. Further, the “EC50 of shedding inhibition” value was found to be 0.0485 µg/mL in assay [5]; 0.0165 µg/mL in [6]; 0.0736 µg/mL in assay [7]; 0.0375 µg/mL in assay [8]; 0.0752 µg/mL in assay [9]; 0.0255 µg/mL in assay [10]. Moreover, the “EC50 of shedding inhibition” value in [11] came out at 0.102 µg/mL. Moreover, the “Max % Inhibition of shedding” value amounted to 64% in [8], 54% in [9], 73% in assay [10] and 60% in assay [11]. Further, the binding result in assay [12], in assay [13], in assay [14], in [15] and in [16] was “binds” each time.

B2: 18G3 (antibody, V domains shown)
VH: VQLQESGPGLVKPSQSLSLTCNVTGYSITGDYAWNWIRQFPGNKLEWIGYIGYTGSTTYNPSLKSRVSITRDTSKNQFFLQLNSVTPEDTATYYCARWRNWAMDYWGLGTSVTVSS
VL: DIQMTQTPSSLSASLGDRVTISCRANQDISHYLNWYQQKPDGAVKLLIYYTSRIHSGVPSRFSGSGSGTDYSLTIANLEQEDVATYFCQQGNTPPTTFGGGTKVEIK
notes: as for B1
In the case of B2, the Kd in assay [1] amounted to 2.03 nM; in assay [2], 4.03 nM; in [3], 6.18 nM; in assay [4], 10.4 nM; in assay [17], 2.6 nM. Further, the “% max inhibition of shedding” value is 74% in assay [5], 75% in [6] and 48% in [7]. The “EC50 of shedding inhibition” value was found to be 0.012 µg/mL in [5], 0.0191 µg/mL in [6] and 0.0124 µg/mL in [7]. Moreover, the binding result in [12], in assay [18], in assay [13], in assay [14], in assay [15] and in assay [16] was “binds” in each case.

B3: 32D2 (antibody, V domains shown)
VH: DVHLVESGGGLVQPGGSRKLSCAASGFTFNTFGMNWVRQAPEKGLEWVAYINSGSNTIYYADTVKGRFTISRDNPKNTLFLQMTSLRSEDTAMYYCTRWEPVTGGFSYWGQGTLVTVSA
VL: QIVLTQSPAFKSSSLGERVTMTCTASSSISSSYLHWYQQKPGSSPKLWIYTTSNLASGVPARFSGSGSGTSYSLTISTMEAEDAATYYCHQHHRSPFTFGSGTKVEIK
notes: Mouse hybridoma antibody; constant regions differ by assay
Regarding B3, the Kd in [1] turned out to be 1.94 nM; in [2] it was 2.85 nM; in assay [3], 2.82 nM; in assay [4] it was 3.18 nM; in [17] it was 4 nM. Moreover, the “% max inhibition of shedding” value in assay [5] is 76%; in [6], 71%; in assay [7], 54%. Moreover, the “EC50 of shedding inhibition” value in assay [5] was found to be 0.0592 µg/mL; in assay [6], 0.0303 µg/mL; in [7] it was 0.0781 µg/mL. Besides, the binding result in [12], in assay [13], in assay [14], in [15] and in assay [16] was “binds” throughout.

B4: 20G11 (antibody, V domains shown)
VH: DVQLVESGGGLVQPGGSRKLSCAASGFTFSTFGIHWVRQAPEKGLEWVAYISYDSRTIYYADTVKGRFTISRDNPKNTLFLQMTSLRSEDTAMYYCARWAYEGGVNYFDNWGQGTTLTVSS
VL: QIVLTQSPAIMSASLGERVTMTCTATSGVSSSYLHWYQQKPGSSPKLWIYSSSNLASGVPARFSGSGSGTSYSLTIGSMEAEDAATYYCHQFHRSPLTFGTGTKVEIK
notes: as for B3
Take B4: the Kd in [1] was determined as 0.77 nM; in assay [2] it was 1.06 nM; in assay [3] it was 1.05 nM; in assay [4], 1.76 nM; in [17], 3.8 nM. In addition, the “% max inhibition of shedding” value amounted to 69% in assay [5], 70% in assay [6] and 51% in assay [7]. The figures for the “EC50 of shedding inhibition” value in [5], in [6] and in assay [7] were 0.123 µg/mL, 0.0285 µg/mL and 0.0169 µg/mL, respectively. Moreover, the binding result in assay [12], in assay [13], in assay [14], in assay [15], in assay [19] and in assay [16] was “binds” throughout.
